In assay [1] the target is T1, Human CD3 on naive human T cells (human, UniProt P07766 23-207). Description: cell-based or functional assay.
Assay [2] deals with T2, Human CD3 epsilon-delta (human).
T2 construct: Single-chain epsilon-linker-delta with His6; also called huCD3
T2 chain: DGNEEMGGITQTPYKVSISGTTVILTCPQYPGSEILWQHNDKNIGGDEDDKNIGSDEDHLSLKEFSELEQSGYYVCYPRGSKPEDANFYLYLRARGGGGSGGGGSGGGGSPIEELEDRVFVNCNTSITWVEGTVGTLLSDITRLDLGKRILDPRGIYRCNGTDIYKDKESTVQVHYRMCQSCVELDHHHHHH
Nature of the assay: SPR, CD3 captured by anti-His, printed 25 C (Table 33C). A general note: SPR reads the build-up and loss of mass on a sensor chip optically.

For assay [3], the target named is T2, Human CD3 epsilon-delta. Description: SPR, CD3 captured by anti-His, 25 C.
Assay [4] concerns the target T1, Human CD3 on naive human T cells. Nature of the assay: flow cytometry titration on naive human T cells (PE-A Geo Mean against concentration in nM). In general terms: Flow cytometry measures light scatter and fluorescence of single cells or particles in a stream.
Assay [5] has as its target T3, Cynomolgus CD3 epsilon-delta (cynomolgus).
T3 chain: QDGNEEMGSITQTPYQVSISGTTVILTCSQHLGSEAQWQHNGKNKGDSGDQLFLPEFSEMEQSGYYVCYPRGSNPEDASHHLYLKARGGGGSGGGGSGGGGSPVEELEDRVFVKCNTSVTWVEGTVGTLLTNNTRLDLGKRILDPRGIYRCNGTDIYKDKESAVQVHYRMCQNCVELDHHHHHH
Nature of the assay: SPR, CD3 captured by anti-His, 25 C.

Assay [6] concerns the target T4, Human GUCY2c on tumor cells (T84, HT55) (human, UniProt P25092 24-1073).
T4 construct: Endogenous receptor; also called GUCY2c expressing cell lines; T84 cells expressing human GUCY2c
Nature of the assay: flow cytometry titration on T84 tumor cells (PE-A Geo Mean against Ab in nM).

Assay [7] deals with T5, Human GUCY2C full length (SEQ ID NO: 224), recombinant protein (human, UniProt P25092 24-430, limits assumed).
T5 construct: also called huGUCY2C; biotinylated human GUCY2c
Description: SPR, GUCY2c directly immobilized, 37 C.

Assay [8] deals with T5, Human GUCY2C full length (SEQ ID NO: …). Nature of the assay: SPR, GUCY2c directly immobilized, 25 C.
In assay [9] the target is T4, Human GUCY2c on tumor cells (T84, HT55). Description: cell-based or functional assay.
Assay [10] concerns the target T6, GUCY2C_ECD Peptide 59 (human).
T6 peptide: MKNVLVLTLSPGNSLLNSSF
Description: peptide DELFIA ELISA.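 Note: epitope mapping using overlapping 20-mer GUCY2C peptides covering residues 1-440, extracellular into transmembrane domain, coated at 20 µg/ml as target antigen and probed with antibodies or GUCY2C-CD3 bispecifics.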

The target in assay [11] is T7, GUCY2C_ECD Peptide 10 (human).
T7 peptide: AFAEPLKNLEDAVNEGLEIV
Nature of the assay: peptide DELFIA ELISA.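 Note: epitope mapping using overlapping 20-mer GUCY2C peptides covering residues 1-440, extracellular into transmembrane domain, coated at 20 µg/ml as target antigen and probed with antibodies or GUCY2C-CD3 bispecifics.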 For orientation: An ELISA detects its analyte on a solid surface through an enzyme-linked reagent.

Assay [12] addresses T8, GUCY2C_ECD Peptide 1 (human).
T8 peptide: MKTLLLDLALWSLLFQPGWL
Description: peptide DELFIA ELISA.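 Note: epitope mapping using overlapping 20-mer GUCY2C peptides covering residues 1-440, extracellular into transmembrane domain, coated at 20 µg/ml as target antigen and probed with antibodies or GUCY2C-CD3 bispecifics.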

Assay [13] concerns the target T9, GUCY2C_ECD Peptide 82 (human).
T9 peptide: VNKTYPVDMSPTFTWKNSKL
Description: peptide DELFIA ELISA.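 Note: epitope mapping using overlapping 20-mer GUCY2C peptides covering residues 1-440, extracellular into transmembrane domain, coated at 20 µg/ml as target antigen and probed with antibodies or GUCY2C-CD3 bispecifics.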

T5 sequence (P25092 24-430 F281L limits assumed): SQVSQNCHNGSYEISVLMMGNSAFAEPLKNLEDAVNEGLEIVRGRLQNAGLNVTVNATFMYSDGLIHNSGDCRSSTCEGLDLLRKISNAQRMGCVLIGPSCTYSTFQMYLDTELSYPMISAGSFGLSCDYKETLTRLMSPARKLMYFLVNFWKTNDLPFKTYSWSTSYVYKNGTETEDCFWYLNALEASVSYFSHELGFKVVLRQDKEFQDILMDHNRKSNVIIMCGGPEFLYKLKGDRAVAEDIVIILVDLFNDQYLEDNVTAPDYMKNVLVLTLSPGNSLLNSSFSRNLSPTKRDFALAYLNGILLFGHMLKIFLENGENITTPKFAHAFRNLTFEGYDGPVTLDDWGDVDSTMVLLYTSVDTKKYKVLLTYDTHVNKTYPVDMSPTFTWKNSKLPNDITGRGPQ
T4 sequence (P25092 24-1073 limits assumed): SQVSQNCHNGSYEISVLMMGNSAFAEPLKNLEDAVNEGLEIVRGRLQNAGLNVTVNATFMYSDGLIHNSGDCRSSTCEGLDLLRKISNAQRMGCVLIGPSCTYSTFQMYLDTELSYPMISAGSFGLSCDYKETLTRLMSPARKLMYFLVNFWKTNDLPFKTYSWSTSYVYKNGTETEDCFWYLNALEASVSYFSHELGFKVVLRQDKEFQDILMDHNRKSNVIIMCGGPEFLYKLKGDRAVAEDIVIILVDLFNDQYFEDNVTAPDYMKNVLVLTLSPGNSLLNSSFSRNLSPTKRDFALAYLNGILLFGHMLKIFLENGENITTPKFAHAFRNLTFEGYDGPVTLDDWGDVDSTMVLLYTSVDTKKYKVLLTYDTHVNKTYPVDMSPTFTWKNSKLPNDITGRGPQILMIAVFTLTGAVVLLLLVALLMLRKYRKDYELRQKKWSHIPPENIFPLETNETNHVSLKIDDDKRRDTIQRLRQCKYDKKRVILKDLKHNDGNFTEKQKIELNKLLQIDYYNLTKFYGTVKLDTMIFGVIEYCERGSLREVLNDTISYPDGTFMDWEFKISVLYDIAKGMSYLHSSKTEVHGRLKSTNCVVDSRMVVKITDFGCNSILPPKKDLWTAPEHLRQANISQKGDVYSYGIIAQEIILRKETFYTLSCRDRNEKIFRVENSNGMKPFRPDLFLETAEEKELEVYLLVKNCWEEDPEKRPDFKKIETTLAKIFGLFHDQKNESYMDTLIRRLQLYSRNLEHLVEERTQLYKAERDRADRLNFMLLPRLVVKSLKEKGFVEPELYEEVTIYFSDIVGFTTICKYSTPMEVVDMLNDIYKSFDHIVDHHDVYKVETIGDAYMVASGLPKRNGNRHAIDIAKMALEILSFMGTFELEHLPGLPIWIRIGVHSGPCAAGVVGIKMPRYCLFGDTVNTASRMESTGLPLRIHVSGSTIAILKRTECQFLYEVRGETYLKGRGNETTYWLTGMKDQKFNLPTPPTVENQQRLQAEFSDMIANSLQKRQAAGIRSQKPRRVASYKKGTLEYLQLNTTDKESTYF

B1: GUCY2C-1608 (bispecific antibody)
chain 1: DIQLTQSPSSLSASVGDRVTITCRASESVDYYGSSLLQWYQQKPGKAPKLLIYAASKLASGVPSRFSGSGSGTDFTLTISSLQPEDFATYYCQQTRKAYTFGQGTKLEIKGGGSGGGGEVQLVESGGGLVQPGGSLRLSCAASGFTFSDYYMTWVRQAPGKGLEWVAFIRNQARGYTSDHNPSVKGRFTISRDNAKNSLYLQMNSLRAEDTAVYYCARDRPSYYVLDYWGQGTTVTVSSGCPPCPAPEAAGAPSVFLFPPKPKDTLMISRTPEVTCVVVDVSHEDPEVKFNWYVDGVEVHNAKTKPREEQYNSTYRVVSVLTVLHQDWLNGKEYKCKVSNKALPAPIEKTISKAKGQPREPQVCTLPPSREEMTKNQVSLWCLVKGFYPSDIAVEWESNGQPENNYKTTPPVLDSDGSFFLYSKLTVDKSRWQQGNVFSCSVMHEALHNHYTQKSLSLSPG
chain 2: DIQMTQSPSSLSASVGDRVTITCTSSQSLFNVRSQKNYLAWYQQKPGKAPKLLIYWASTRESGVPSRFSGSGSGTDFTLTISSLQPEDFATYYCKQSYDLFTFGGGTKVEIKGGGGSGGGGEVQLVESGGGLVQPGGSLRLSCAASGFTFSSYWMHWVRQAPGKGLEWIGEIKPSNELTNVHEKFKDRFTISVDKAKNSAYLQMNSLRAEDTAVYYCTRTITTTEGYWFFDVWGQGTLVTVSSGCPPCPAPEAAGAPSVFLFPPKPKDTLMISRTPEVTCVVVDVSHEDPEVKFNWYVDGVEVHNAKTKPREEQYNSTYRVVSVLTVLHQDWLNGKEYKCKVSNKALPAPIEKTISKAKGQPREPQVYTLPPCREEMTKNQVSLSCAVKGFYPSDIAVEWESNGQPENNYKTTPPVLDSDGSFFLVSKLTVDKSRWQQGNVFSCSVMHEALHNHYTQKSLSLSPG
notes: also called GUCY2c CD3 bispecific
As a reminder, the Kd is a measure of binding affinity in units of concentration. By koff is commonly meant the first-order rate constant of dissociation. Usually kon stands for the second-order rate constant of association. As for B1, the “In vitro Cytotoxicity (nM), T-cell retargeting assay” value in assay [1] came out at 0.772 nM. Also, the dissociation constant Kd in [2] was determined as 124 nM; in assay [3], 24 nM; in assay [4], 35.4 nM; in assay [5], 24.1 nM; in [6], 0.62 nM; in assay [7] it was 13.5 nM. The dissociation constant (Kd) in assay [8] turned out to be 7.47 nM. Besides, the koff in assay [2] worked out at 0.09 s⁻¹; in assay [3], 0.00999 s⁻¹; in assay [5], 0.00916 s⁻¹; in assay [7] it was 0.00217 s⁻¹; in [8], 0.000758 s⁻¹. Also, the kon amounted to 744000 M⁻¹ s⁻¹ in assay [2]; 418000 M⁻¹ s⁻¹ in assay [3]; 381000 M⁻¹ s⁻¹ in assay [5]; 161000 M⁻¹ s⁻¹ in [7]; 101000 M⁻¹ s⁻¹ in [8]. In addition, the “T84 tumor cell EC50 (T cell cytotoxicity, E:T 5:1)” value in [9] worked out at 0.19 nM. Moreover, the “DELFIA TRF” value in assay [10] came to 135; in assay [11], 105; in assay [12], 166; in assay [13] it was 99.2.

(Values after patent US20230340151A1 (Pfizer, published 2023).)
